What all share (assay): BLI; BLItz (ForteBio); biotinylated Fab loaded on streptavidin biosensors (rehydrated in PBS with 0.1% BSA); lysozymes passed on and off at a range of concentrations; global fits of kinetics (BlitzPro 1.2.1.3)
The target in one experiment is HyHEL10 Fab.
Experiment [1] concerns the target T1, Pekin duck egg lysozyme isoform I (Anas platyrhynchos, Pekin duck, …, strain).
T1 construct: Allelic isoform I of C-type lysozyme of Pekin duck (Anas platyrhynchos), 129 positions; Asp66 and Asn103; First of three peaks eluted from CM resin; Observed intact mass 14391.88 Da; also called DEL-I; DL-1 (Kondo); source: purified from Pekin duck egg white (CM ion exchange, gel filtration)
T1 chain: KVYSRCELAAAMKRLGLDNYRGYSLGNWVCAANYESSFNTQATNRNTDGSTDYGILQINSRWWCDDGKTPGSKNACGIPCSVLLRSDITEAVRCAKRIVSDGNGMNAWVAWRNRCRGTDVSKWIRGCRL
As to conditions: both partners purified.

The target in experiment [2] is T2, Pekin duck egg lysozyme isoform II (Anas platyrhynchos, Pekin duck, …, UniProt P00705, strain).
T2 construct: Isoform II of C-type lysozyme of Pekin duck (Anas platyrhynchos), 129 positions; entry P00705 (Kondo DL-2) differs at residues 66 and 103; Second of three peaks eluted from CM resin; Observed intact mass 14460.98 Da; No crystal structure; also called DEL-II; DL-2 (Kondo); source: purified from Pekin duck egg white (CM ion exchange, gel filtration)
Particulars: both partners purified.

Take “Pekin duck egg lysozyme isoform III (enzyme)”: the Kd with HyHEL10 Fab was over 1000 nM.

B1: HyHEL10 Fab (Fab, V domains shown)
VH: DVQLQESGPSLVKPSQTLSLTCSVTGDSITSDYWSWIRKFPGNRLEYMGYVSYSGSTYYNPSLKSRISITRDTSKNQYYLDLNSVTTEDTATYYCANWDGDYWGQGTLVTVSA
VL: DIVLTQSPATLSVTPGNSVSLSCRASQSIGNNLHWYQQKSHESPRLLIKYASQSISGIPSRFSGSGSGTDFTLSINSVETEDFGMYFCQQSNSWPYTFGGGTKLEIK
notes: HyHEL10 Fab heavy chain; HyHEL10 kappa light chain; Cloned into pCEP4; also called HyHEL10 Fab arm; source: Expi293, transiently expressed, purified from supernatant (HisTrap FF Crude)
As to B1, the Kd came to 40 nM in experiment [1] and 34 nM in experiment [2].

The values are drawn from publication PMC5683014 (Acta Crystallographica. Section D, Structural Biology, 2017).
